Reference: publication PMC9142731 (Virology Journal, 2022)

Columns and labels:
Settings in all cases: both partners purified
[1] = target: T1, SARS-CoV-2 nucleocapsid protein (WT), recombinant (Severe acute respiratory syndrome …, UniProt P0DTC9); assay: SPR
T1 construct: also called SARS-CoV-2 NP; WT NP; source: bought: Sino Biological; not shown: His tag, C-terminal, kept

[2] = target: T2, SARS-CoV nucleocapsid protein, recombinant (Severe acute respiratory syndrome …, UniProt P59595)
T2 construct: also called SARS-CoV NP; source: bought: Sino Biological

[3] = target: T3, 229E nucleocapsid protein, recombinant (Human coronavirus 229E (HCoV-229E)., UniProt P15130)
T3 construct: also called 229E NP; source: bought: Sino Biological

[4] = target: T4, MERS-CoV nucleocapsid protein, recombinant (MERS-CoV, strain , UniProt K9N4V7); assay: ELISA
T4 construct: also called MERS-CoV NP; source: bought: Sino Biological

[5] = target: T5, OC43 nucleocapsid protein, recombinant (Human coronavirus OC43 (HCoV-OC43)., UniProt P33469); assay: ELISA
T5 construct: also called OC43 NP; source: bought: Sino Biological

[6] = target: T6, NL63 nucleocapsid protein, recombinant (Human coronavirus NL63 (HCoV-NL63)., UniProt Q6Q1R8); assay: ELISA
T6 construct: also called NL63 NP; source: bought: Sino Biological

[7] = target: T7, HKU1 nucleocapsid protein, recombinant (Human coronavirus HKU1 (isolate N1) …, UniProt Q5MQC6); assay: ELISA
T7 construct: also called HKU1 NP; source: bought: Sino Biological

B1: P301-F7 (antibody, V domains shown)
VH: QLQLQESGPGLVKPSETLSLTCTVSGGSISSTSYYWGWIRQPPGKGLEWIGSIYYSGSTYYNPSLKSRVTISVDTSKNQFSLKLSSVTAADTAVYYCARFSLYCSSTSCYENWFDPWGQGTLVTVSS
VL: QSVLTQPPSVSAAPGQKVTISCSGSSSNIGNNYVSWYQQLPGTAPKLLIYDNNKRPSGIPDRFSGSKSGTSATLGITGLQTGDEADYYCGTWDSSLSAGQVVFGGGTKLTVL
notes: source: 293 F cells, transient transfection, purified (Protein A beads)
Kd [1]: 13.3 nM | Kd [2]: 14.9 nM | binding result [3]: no binding | binding result [4]: no binding | binding result [5]: no binding | binding result [6]: no binding | binding result [7]: no binding
